Results from article PMC4072508, “Genome-Wide Prediction and Validation of Peptides That Bind Human Prosurvival Bcl-2 Proteins” (PLoS Computational Biology, 2014).

T1: Bcl-w, Q92843
T1 chain: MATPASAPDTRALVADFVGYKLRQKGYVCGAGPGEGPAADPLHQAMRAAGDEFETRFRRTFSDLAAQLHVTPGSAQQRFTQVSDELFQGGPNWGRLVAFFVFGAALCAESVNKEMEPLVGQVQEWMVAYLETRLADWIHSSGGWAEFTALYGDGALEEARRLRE

T2: Bfl-1, Q16548
T2 chain: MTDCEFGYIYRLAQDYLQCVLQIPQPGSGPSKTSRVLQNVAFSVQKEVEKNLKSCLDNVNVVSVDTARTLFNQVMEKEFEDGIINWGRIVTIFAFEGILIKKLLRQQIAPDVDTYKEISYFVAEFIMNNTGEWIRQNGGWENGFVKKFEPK

T3: Mcl-1, Q07820
T3 chain: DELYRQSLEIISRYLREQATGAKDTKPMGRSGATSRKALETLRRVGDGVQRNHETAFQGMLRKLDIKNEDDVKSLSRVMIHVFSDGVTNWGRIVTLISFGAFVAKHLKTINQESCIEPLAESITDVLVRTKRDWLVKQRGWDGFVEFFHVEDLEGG

B1: CCDC68 (peptide)
chain: EQKLKQHVENLNQVAEKLEEKHSQIT
B2: OTOF (peptide)
chain: DFMGRTFAKPLVKMADEAYCPPRFPP
B3: MTA2 (peptide)
chain: LFRRRDISSSLNSLADSNAREFEEES
B4: TUBGCP6 (peptide)
chain: KEVEDCVPVFLKHIAHDIYVCGKTIN
B5: MTA2 (peptide)
chain: ASEAMLFEEALEKYGKDFNDIRQDFL
B6: MCF2 (peptide)
chain: ALTVKEMAQMLQSFGTELAETELPDD
B7: MTA1 (peptide)
chain: ASEANLFEEALEKYGKDFTDIQQDFL
B8: EXOC5 (peptide)
chain: IKEAADIIQKLHLIAQELPFDRFSEV
B9: BAK1 (peptide)
chain: SSTMGQVGRQLAIIGDDINRRYDSEF
B10: USP36 (peptide)
chain: HRTSNVLTLSLKRFANFSGGKITKDV
B11: NLRP1 (peptide)
chain: LKELDLSGNSLSHSAVKSLCKTLRRP
B12: MTA1 (peptide)
chain: RQAFYLHTTKLTRIARRLCREILRPW
B13: ILF3 (peptide)
chain: LCKEKPTTALLDKVADNLAIQLAAVT
B14: KIAA0430 (peptide)
chain: NKDGKSVSNRLRRLSDNCGGKVLSIT
B15: FES (peptide)
chain: AIPRAEVAELLVHSGDFLVRESQGKQ
B16: CC2D1B (peptide)
chain: RAGELDRARELMRIGKRFGAVLEALE
B17: MTA3 (peptide)
chain: ASEASLFEEALEKYGKDFNDIRQDFL
B18: UBA1 (peptide)
chain: DIDEGLYSRQLYVLGHEAMKRLQTSS

Biological target: Bcl-2, P10415
Sequence (P10415 1-217): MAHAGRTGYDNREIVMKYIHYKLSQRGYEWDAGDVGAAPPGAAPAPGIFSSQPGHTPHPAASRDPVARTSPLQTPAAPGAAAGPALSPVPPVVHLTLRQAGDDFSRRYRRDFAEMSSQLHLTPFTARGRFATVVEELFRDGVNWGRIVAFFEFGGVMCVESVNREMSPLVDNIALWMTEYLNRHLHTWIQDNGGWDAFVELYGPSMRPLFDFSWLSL
Test: peptide SPOT array, c-Myc-tagged receptor at 1 uM or 100 nM, anti-c-Myc-Cy3

SPOT signal as a fraction of Bim BH3's signal on the same receptor and array	Binder
0.01	B1
0.06	B2
0.02	B3
0.01	B4
0.01	B5
0.01	B6
0.01	B7
0.01	B8
0.27	B9
0.2	B10
0.09	B11
0.23	B12
0.01	B13
0.13	B14
0.01	B15
0.03	B16
0.01	B17
0.02	B18

Biological target: T1, Bcl-w, Q92843
Test: as above

SPOT signal as a fraction of Bim BH3's signal on the same receptor and array	Binder
0.02	B1
0.14	B2
0.04	B3
0.02	B4
0.02	B5
0.02	B6
0.02	B7
0.21	B8
0.72	B9
0.65	B10
0.41	B11
0.89	B12
0.02	B13
0.61	B14
0.02	B15
0.13	B16
0.02	B17
0.03	B18

Biological target: Bcl-xL, Q07817
Sequence (Q07817 1-209): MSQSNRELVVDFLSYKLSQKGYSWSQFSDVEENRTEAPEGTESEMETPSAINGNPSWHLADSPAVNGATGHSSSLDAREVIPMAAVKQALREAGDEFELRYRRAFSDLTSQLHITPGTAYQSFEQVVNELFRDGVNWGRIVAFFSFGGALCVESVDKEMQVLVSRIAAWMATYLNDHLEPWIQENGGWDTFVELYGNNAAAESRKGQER
Test: as above

SPOT signal as a fraction of Bim BH3's signal on the same receptor and array	Binder
0.03	B1
0.26	B2
0.08	B3
0.04	B4
0.03	B5
0.03	B6
0.03	B7
0.11	B8
0.4	B9
0.55	B10
0.4	B11
0.75	B12
0.03	B13
0.56	B14
0.03	B15
0.16	B16
0.02	B17
0.05	B18

Biological target: T2, Bfl-1, Q16548
Test: as above

SPOT signal as a fraction of Bim BH3's signal on the same receptor and array	Binder
0.01	B1
0.1	B2
0.05	B3
0.03	B4
0.01	B5
0.01	B6
0.01	B7
0.03	B8
0.4	B9
0.48	B10
0.42	B11
0.72	B12
0.02	B13
0.31	B14
0.02	B15
0.16	B16
0.01	B17
0.09	B18

Biological target: T3, Mcl-1, Q07820
Test: as above

SPOT signal as a fraction of Bim BH3's signal on the same receptor and array	Binder
0.02	B1
0.1	B2
0.04	B3
0.02	B4
0.03	B5
0.03	B6
0.03	B7
0.09	B8
0.84	B9
0.29	B10
0.13	B11
0.41	B12
0.02	B13
0.21	B14
0.03	B15
0.06	B16
0.02	B17
0.04	B18
